# Measurements reported in patent publication US20160185837A1 (Medimmune Limited, priority 2013, published 2016).
# T1: hGIPr (C3) (Homo sapiens, UniProt P48546)
# T1 construct: expressed in transfected cells
# T1 sequence (P48546 22-466): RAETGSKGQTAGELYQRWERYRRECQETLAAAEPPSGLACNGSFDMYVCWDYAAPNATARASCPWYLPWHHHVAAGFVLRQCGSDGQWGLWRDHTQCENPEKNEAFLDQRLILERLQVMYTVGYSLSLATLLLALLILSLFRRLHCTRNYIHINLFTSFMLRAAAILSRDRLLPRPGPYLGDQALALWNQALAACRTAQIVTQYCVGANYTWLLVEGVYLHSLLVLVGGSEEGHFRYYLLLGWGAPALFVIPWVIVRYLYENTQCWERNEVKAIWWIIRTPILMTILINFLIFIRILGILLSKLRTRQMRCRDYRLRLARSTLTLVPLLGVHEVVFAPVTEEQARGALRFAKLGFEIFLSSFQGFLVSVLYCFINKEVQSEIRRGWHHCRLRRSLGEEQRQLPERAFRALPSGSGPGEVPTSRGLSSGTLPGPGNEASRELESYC
# T2: rat GIP receptor (rGIPr) (Rattus norvegicus, UniProt P43219)
# T2 construct: expressed in transfected cells; host or cells: HEK293s or CHO cells
# T2 sequence (P43219 19-455): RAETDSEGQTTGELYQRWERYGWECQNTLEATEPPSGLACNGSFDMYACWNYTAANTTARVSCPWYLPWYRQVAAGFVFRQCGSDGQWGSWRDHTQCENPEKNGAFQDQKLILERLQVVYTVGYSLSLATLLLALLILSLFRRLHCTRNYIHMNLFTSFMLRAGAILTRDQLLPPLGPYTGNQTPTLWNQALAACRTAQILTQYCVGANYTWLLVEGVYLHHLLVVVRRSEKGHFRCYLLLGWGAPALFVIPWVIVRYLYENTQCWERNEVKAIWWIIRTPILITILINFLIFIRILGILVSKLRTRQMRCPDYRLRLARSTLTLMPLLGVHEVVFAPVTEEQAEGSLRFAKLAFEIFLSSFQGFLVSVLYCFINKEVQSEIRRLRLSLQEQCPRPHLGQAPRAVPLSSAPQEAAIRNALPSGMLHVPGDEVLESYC
# B1: IP018 (protein)
# chain: YSEGTFISDYSIAMDKIHQQDFVNWLLAQKAAAGGSGSTASSGSGSATGGGGAATHTCPPCPAPEF
# modifications: /note=“Description of Artificial Sequence Synthetic Peptide-linker-hinge polypeptide”
# Tests used:
# hGIPr (C3) = molecular target: T1, hGIPr (C3); test: BSA-cAMP assay, second human GIPr cell line hGIPr (C3); type: cell-based; settings: second human GIPr cell line, STDEV or N in the line below, read-out: cAMP activity hGIPr (C3) (EC50)
# Procedure: For human GIPr, two different lines were used, shown as “hGIPr” and “hGIPr (C3)” in Table 11. Peptide activation of these various receptors results in downstream production of cAMP second messenger that can be measured in a functional activity assay.
# One basic cAMP assays was performed, differing in the medium used for the assay, the “BSA-cAMP assay”:
# BSA-based assay medium: 0.1% bovine serum albumin (BSA) in
# Hanks Balanced Salt Solution (GIBCO or Sigma), containing 0.5 mM IBMX (Sigma #17018);
# In certain aspects, the assay can also be carried out in medium supplemented with serum albumin that corresponds to the receptor being tested, e.g., human serum albumin for testing cAMP activity at hGIPr or hGLP-1r, rat serum albumin for testing cAMP activity at rGIPr or rGLP-1r, and so on. […]
# cAMP levels were measured using a commercially available cAMP dynamic 2 HTRF kit (Cisbio, Cat #62AM4PEJ), following the two step protocol as per manufacturer's recommendations. […] Plates were incubated at room temperature for one hour and then read on an Envision (Perkin Elmer) using excitation wavelength of 320 nm and emission wavelengths of 620 nm & 665 nm. Data was transformed to % Delta F as described in manufacturer's guidelines and then transformed to percent activation of maximal native agonist response and analysed by 4-parameter logistic fit to determine EC50 values. […]
# rat GIP receptor (rGIPr) = molecular target: T2, rat GIP receptor (rGIPr); test: BSA-cAMP assay, cells expressing rat GIP receptor; type: cell-based; settings: BSA-cAMP assay; read-out: cAMP activity rGIPr (EC50)
# In short: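 EC50 is the midpoint of an unconstrained 4-parameter logistic fit to HTRF cAMP data, expressed as percent of maximal native agonist response, from two separate occasions. Rodent (mouse, rat) GLP-1R- or GIPR-expressing cells were incubated with compound 30 min at room temperature in 0.1% BSA medium, in duplicate.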
molecule,measurement,setting,value
B1,EC50,hGIPr (C3),0.8 nM
same,EC50,rat GIP receptor (rGIPr),0.0076 nM
